In IntAct's records for PubMed 21905166:

B1: Rab proteins geranylgeranyltransferase component A 1 (Homo sapiens), P24386 (parent)
chain: MADTLPSEFDVIVIGTGLPESIIAAACSRSGRRVLHVDSRSYYGGNWASFSFSGLLSWLKEYQENSDIVSDSPVWQDQILENEEAIALSRKDKTIQHVEVFCYASQDLHEDVEEAGALQKNHALVTSANSTEAADSAFLPTEDESLSTMSCEMLTEQTPSSDPENALEVNGAEVTGEKENHCDDKTCVPSTSAEDMSENVPIAEDTTEQPKKNRITYSQIIKEGRRFNIDLVSKLLYSRGLLIDLLIKSNVSRYAEFKNITRILAFREGRVEQVPCSRADVFNSKQLTMVEKRMLMKFLTFCMEYEKYPDEYKGYEEITFYEYLKTQKLTPNLQYIVMHSIAMTSETASSTIDGLKATKNFLHCLGRYGNTPFLFPLYGQGELPQCFCRMCAVFGGIYCLRHSVQCLVVDKESRKCKAIIDQFGQRIISEHFLVEDSYFPENMCSRVQYRQISRAVLITDRSVLKTDSDQQISILTVPAEEPGTFAVRVIELCSSTMTCMKGTYLVHLTCTSSKTAREDLESVVQKLFVPYTEMEIENEQVEKPRILWALYFNMRDSSDISRSCYNDLPSNVYVCSGPDCGLGNDNAVKQAETLFQEICPNEDFCPPPPNPEDIILDGDSLQPEASESSAIPEANSETFKESTNLGNLEESSE
partner: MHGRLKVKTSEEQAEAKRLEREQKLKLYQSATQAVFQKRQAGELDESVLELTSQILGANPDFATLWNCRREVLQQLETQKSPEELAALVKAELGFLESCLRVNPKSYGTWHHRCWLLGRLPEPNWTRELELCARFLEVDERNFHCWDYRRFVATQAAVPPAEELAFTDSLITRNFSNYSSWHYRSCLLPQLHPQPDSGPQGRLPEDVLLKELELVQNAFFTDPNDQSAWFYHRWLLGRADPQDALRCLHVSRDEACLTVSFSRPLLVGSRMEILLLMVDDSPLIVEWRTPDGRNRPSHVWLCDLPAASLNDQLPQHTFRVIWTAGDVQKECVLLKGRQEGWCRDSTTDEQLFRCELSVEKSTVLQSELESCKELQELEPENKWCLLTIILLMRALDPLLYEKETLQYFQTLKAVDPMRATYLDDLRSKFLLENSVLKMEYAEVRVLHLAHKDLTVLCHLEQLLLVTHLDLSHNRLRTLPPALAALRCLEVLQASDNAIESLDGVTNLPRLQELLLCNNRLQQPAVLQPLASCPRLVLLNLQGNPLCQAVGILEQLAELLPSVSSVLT

Variants of: B1
Conditions: with pgta_human RABGGTA
With H507R the “effect of a mutation on the interaction” value was “disrupting interaction”.
